Test results reported in patent publication US7067277B1, “Chimeric G proteins and uses thereof” (H. Lundbeck A/S, priority 1999, dated 2006).
Residue numbers refer to the chain shown, from its start.

B1: cGαq/z5: chimeric Gα subunit: C-terminal final 5 amino acids of C. elegans Gαq replaced with those of hGαz (SEQ ID NO: 1) (protein)
chain: MACCLSEEAREQKRINQEIEKQLQRDKRNARRELKLLLLGTGESGKSTFIKQMRIIHGQGYSEEDKRAHIRLVYQNVFMAIQSMIRAMDTLDIKFGNESEELQEKAAVVREVDFESVTSFEEPYVSYIKELWEDSGIQECYDRRREYQLTDSAKYYLSDLRRLAVPDYLPTEQDILRVRVPTTGIIEYPFDLEQIIFRMVDVGGQRSERRKWIHCFENVTSIMFLVALSEYDQVLVECDNENRMEESKALFRTIITYPWFTNSSVILFLNKKDLLEEKILYSHLADYFPEYDGPPRDPIAAREFILKMFVDLNPDADKIIYSHFTCATDTENIRFVFAAVKDTILQHNLKYIGLC
modifications: C. elegans
B2: cGαq/z9: C. elegans Gαq with Gαz portion of the C-terminal tail extended to 9 amino acids (SEQ ID NO: 2) (protein)
chain: B1 chain with H347N
modifications: C. elegans

What was measured:
Assay in all cases: Calcium mobilization (FLIPR, Fluo-3) in transfected COS-7 cells
Type in all cases: cell-based
h Y5 = biological target: T1, h Y5 (Homo sapiens, UniProt Q15761); conditions: h Y5 + chimera in COS-7; agonist NPY, max 10 μM
T1 construct: expressed in transfected cells; host or cells: COS-7
T1 sequence (Q15761 1-445): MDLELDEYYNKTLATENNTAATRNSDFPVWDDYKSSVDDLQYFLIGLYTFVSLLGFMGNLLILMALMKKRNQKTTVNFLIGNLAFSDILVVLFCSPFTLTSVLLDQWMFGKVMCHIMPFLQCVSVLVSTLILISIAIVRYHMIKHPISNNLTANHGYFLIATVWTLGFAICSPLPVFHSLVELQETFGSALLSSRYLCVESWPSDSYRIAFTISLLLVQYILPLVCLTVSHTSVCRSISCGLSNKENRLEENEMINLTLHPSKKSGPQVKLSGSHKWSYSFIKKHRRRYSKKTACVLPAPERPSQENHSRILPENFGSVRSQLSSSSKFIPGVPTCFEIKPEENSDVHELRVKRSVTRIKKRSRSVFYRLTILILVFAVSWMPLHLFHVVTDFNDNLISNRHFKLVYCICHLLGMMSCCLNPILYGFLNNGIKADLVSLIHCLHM
How it was run: (§1)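 Assay buffer was HBSS with 20 mM HEPES (pH 7.4), 0.1% BSA and 2.5 mM probenecid, and cells were loaded with 4 μM Fluo-3. Transfected COS-7 cells carried receptor and chimeric G protein cDNA at 1:1 or 8:1:1 ratios. Peak fluorescence change gave Hill-fitted curves.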

r GALR1 = biological target: T2, r GALR1 (Rattus norvegicus, UniProt Q62805); conditions: r GALR1 + chimera in COS-7; agonist GAL, max 10 μM
T2 sequence (Q62805 1-346): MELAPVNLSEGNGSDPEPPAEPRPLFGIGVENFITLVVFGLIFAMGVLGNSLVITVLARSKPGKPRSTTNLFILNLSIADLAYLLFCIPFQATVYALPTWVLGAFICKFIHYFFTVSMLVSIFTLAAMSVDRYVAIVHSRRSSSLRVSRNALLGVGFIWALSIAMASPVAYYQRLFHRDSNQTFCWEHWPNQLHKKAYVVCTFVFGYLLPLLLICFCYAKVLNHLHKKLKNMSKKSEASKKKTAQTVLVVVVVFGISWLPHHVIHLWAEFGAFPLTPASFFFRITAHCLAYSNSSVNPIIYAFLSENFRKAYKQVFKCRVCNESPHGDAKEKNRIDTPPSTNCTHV
How it was run: as §1

h GLP-1 = h GLP-1 (Homo sapiens, UniProt P43220); conditions: h GLP-1 + chimera in COS-7; agonist GLP-1, max 10 μM
Sequence of h GLP-1 (P43220 24-463): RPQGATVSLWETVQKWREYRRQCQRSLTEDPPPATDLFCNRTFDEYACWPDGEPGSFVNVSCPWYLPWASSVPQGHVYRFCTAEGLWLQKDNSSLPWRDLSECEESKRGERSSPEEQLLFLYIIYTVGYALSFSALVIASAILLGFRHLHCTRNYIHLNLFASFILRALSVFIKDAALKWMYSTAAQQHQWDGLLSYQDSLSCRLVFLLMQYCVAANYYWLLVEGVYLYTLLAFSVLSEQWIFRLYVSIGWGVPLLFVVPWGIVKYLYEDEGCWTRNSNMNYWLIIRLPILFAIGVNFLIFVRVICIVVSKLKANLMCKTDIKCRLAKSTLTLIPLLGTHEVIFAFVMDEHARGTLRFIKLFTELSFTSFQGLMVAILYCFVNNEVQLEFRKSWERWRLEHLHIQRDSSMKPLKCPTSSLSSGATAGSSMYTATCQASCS
How it was run: as §1

h 5HT1F = biological target: T3, h 5HT1F (Homo sapiens, UniProt P30939); conditions: h 5HT1F + chimera in COS-7; agonist 5HT, max 100 μM
T3 sequence (P30939 1-366): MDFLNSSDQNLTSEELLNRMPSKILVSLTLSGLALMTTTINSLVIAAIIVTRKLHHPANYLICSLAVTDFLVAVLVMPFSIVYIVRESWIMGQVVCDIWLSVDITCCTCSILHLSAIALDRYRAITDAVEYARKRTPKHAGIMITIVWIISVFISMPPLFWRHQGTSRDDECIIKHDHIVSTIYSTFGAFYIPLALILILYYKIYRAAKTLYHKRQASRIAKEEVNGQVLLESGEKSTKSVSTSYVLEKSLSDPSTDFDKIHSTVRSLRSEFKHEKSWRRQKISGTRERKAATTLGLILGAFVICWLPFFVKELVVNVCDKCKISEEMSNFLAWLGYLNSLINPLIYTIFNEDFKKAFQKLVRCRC
How it was run: as §1

h Y2 = biological target: T4, h Y2 (Homo sapiens, UniProt P49146); conditions: h Y2 + chimera in COS-7; agonist NPY, max 10 μM
T4 construct: expressed in transfected cells; host or cells: COS-7
T4 sequence (P49146 1-381): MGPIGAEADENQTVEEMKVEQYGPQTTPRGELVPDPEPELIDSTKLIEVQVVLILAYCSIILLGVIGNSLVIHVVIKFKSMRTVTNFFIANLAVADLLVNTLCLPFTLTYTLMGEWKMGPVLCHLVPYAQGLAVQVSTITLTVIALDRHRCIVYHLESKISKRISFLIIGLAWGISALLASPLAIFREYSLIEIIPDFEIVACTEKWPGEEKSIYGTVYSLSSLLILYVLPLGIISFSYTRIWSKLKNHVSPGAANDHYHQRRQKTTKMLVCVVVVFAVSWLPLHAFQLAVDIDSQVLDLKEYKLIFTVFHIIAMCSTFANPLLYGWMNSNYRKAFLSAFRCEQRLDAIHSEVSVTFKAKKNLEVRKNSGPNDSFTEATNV
How it was run: as §1

h NPFF2 = biological target: T5, h NPFF2 (Homo sapiens, UniProt Q9Y5X5); conditions: h NPFF2 + chimera in COS-7; agonist NPFF, max 10 μM
T5 construct: expressed in transfected cells; host or cells: COS-7
T5 sequence (Q9Y5X5 103-522 limits assumed): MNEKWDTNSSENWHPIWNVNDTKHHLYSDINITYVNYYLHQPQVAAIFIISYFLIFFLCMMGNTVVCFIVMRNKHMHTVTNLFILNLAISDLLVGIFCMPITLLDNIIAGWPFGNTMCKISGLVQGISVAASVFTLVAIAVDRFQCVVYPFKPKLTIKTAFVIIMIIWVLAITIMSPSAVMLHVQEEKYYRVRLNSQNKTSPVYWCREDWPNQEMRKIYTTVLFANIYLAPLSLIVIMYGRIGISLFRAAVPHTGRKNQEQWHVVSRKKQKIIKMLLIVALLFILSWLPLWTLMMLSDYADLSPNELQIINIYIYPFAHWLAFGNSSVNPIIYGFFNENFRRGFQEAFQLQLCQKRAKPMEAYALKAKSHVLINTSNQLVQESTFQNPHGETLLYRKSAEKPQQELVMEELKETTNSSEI
How it was run: as §1

| Molecule | MAXIMAL SIGNAL (FLUORESCENCE UNITS) (h Y5) | MAXIMAL SIGNAL (FLUORESCENCE UNITS) (r GALR1) | MAXIMAL SIGNAL (FLUORESCENCE UNITS) (h GLP-1) | MAXIMAL SIGNAL (FLUORESCENCE UNITS) (h 5HT1F) | MAXIMAL SIGNAL (FLUORESCENCE UNITS) (h Y2) | MAXIMAL SIGNAL (FLUORESCENCE UNITS) (h NPFF2) |
| --- | --- | --- | --- | --- | --- | --- |
| B1 | 5314 fluorescence units | 3086 fluorescence units | 131 fluorescence units | 243 fluorescence units | 7708 fluorescence units | 7566 fluorescence units |
| B2 | 6680 fluorescence units | 5947 fluorescence units | 135 fluorescence units | 384 fluorescence units | 5387 fluorescence units | 4578 fluorescence units |
